# Molecular target: the molecule itself
# Experiment: SEC; Superdex 200 column; purified F1
protein,measurement,value
"polymeric F1 protein (F1 capsular antigen of Yersinia pestis) (natural protein, also called PolyF1; polyF1) ADLTASTTATATLVEPARITLTYKEGAPITIMDNGNIDTELLVGTLTLGGYKTGTTSTSVNFTDAAGDPMYLTFTSQDGNNHQFTTKVIGKDSRDFDISPKVNGENLVGDDVVLATGSQDFFVRSIGSKGGKLAAGKYTDAVTVTVSNQ",binding result,binds

# Source: PMC10054699 (Vaccines, 2023)
